Reference: paper PMC10786891, “Massively parallel profiling of RNA-targeting CRISPR-Cas13d”

T1: EsCas13d, nuclease-dead (Eubacterium siraeum, UniProt B0MS50, R295A;H300A;R849A;H854A)
T1 sequence: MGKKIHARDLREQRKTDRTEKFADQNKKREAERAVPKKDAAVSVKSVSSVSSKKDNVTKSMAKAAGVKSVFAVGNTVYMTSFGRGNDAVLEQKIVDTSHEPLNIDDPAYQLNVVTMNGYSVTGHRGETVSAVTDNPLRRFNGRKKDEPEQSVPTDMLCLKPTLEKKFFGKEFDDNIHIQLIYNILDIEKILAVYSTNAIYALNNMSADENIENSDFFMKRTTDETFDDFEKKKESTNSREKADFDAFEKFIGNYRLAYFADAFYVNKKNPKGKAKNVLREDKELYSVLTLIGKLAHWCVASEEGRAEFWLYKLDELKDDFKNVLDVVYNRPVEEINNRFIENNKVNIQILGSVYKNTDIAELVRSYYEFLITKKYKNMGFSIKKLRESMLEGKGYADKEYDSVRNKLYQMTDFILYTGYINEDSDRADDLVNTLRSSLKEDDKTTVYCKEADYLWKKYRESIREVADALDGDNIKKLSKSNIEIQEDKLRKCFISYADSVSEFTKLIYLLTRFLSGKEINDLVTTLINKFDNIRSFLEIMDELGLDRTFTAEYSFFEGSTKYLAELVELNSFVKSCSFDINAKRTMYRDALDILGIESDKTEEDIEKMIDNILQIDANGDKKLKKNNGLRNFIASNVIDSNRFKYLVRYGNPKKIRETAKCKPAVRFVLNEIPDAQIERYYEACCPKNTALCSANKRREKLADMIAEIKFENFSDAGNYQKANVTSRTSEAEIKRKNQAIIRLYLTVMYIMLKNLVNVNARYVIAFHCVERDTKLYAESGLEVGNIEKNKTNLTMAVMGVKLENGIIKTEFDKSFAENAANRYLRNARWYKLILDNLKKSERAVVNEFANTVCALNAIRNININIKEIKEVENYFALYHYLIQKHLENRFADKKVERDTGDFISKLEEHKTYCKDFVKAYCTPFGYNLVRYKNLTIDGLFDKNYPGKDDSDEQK

B1: target 1 insC 3' of 13,insA 3' of 10 (mixed)
RNA 1: CACCCGUGCAAAAAUGCAGGGGUCUAAAACUGAGCGGAUAACCUCUCUAUGG
RNA 2: GGGAAUGGAUCCACAUCUACGAAUUCGUACCAUAGAGAGCGUUAAUCCGCUCACCGAGAUCGGAAGAGCACACGU
B2: target 1 insA 3' of 19,insC 3' of 12 (mixed)
RNA 1: CACCCGUGCAAAAAUGCAGGGGUCUAAAACUGAGCGGAUAACCUCUCUAUGG
RNA 2: GGGAAUGGAUCCACAUCUACGAAUUCGUACCAUAAGAGAGGCUUAUCCGCUCACCGAGAUCGGAAGAGCACACGU
B3: target 1 U19A,C21U (mixed)
RNA 1: CACCCGUGCAAAAAUGCAGGGGUCUAAAACUGAGCGGAUAACCUCUCUAUGG
RNA 2: GGGAAUGGAUCCACAUCUACGAAUUCGUACUAAAGAGAGGUUAUCCGCUCACCGAGAUCGGAAGAGCACACGU
B4: target 1 insU 3' of 22,insG 3' of 20 (mixed)
RNA 1: CACCCGUGCAAAAAUGCAGGGGUCUAAAACUGAGCGGAUAACCUCUCUAUGG
RNA 2: GGGAAUGGAUCCACAUCUACGAAUUCGUACUCAGUAGAGAGGUUAUCCGCUCACCGAGAUCGGAAGAGCACACGU
B5: target 1 A9U,U11C (mixed)
RNA 1: CACCCGUGCAAAAAUGCAGGGGUCUAAAACUGAGCGGAUAACCUCUCUAUGG
RNA 2: GGGAAUGGAUCCACAUCUACGAAUUCGUACCAUAGAGAGGCUUUCCGCUCACCGAGAUCGGAAGAGCACACGU
B6: target 1 G12U,G17U (mixed)
RNA 1: CACCCGUGCAAAAAUGCAGGGGUCUAAAACUGAGCGGAUAACCUCUCUAUGG
RNA 2: GGGAAUGGAUCCACAUCUACGAAUUCGUACCAUAUAGAGUUUAUCCGCUCACCGAGAUCGGAAGAGCACACGU
B7: target 1 insG 3' of 9,insC 3' of 9 (mixed)
RNA 1: CACCCGUGCAAAAAUGCAGGGGUCUAAAACUGAGCGGAUAACCUCUCUAUGG
RNA 2: GGGAAUGGAUCCACAUCUACGAAUUCGUACCAUAGAGAGGUUAGCUCCGCUCACCGAGAUCGGAAGAGCACACGU
B8: target 1 insU 3' of 17,insC 3' of 9 (mixed)
RNA 1: CACCCGUGCAAAAAUGCAGGGGUCUAAAACUGAGCGGAUAACCUCUCUAUGG
RNA 2: GGGAAUGGAUCCACAUCUACGAAUUCGUACCAUAGUAGAGGUUACUCCGCUCACCGAGAUCGGAAGAGCACACGU
B9: target 1 U3C (mixed)
RNA 1: CACCCGUGCAAAAAUGCAGGGGUCUAAAACUGAGCGGAUAACCUCUCUAUGG
RNA 2: GGGAAUGGAUCCACAUCUACGAAUUCGUACCAUAGAGAGGUUAUCCGCCCACCGAGAUCGGAAGAGCACACGU
B10: target 1 G5C,G12U (mixed)
RNA 1: CACCCGUGCAAAAAUGCAGGGGUCUAAAACUGAGCGGAUAACCUCUCUAUGG
RNA 2: GGGAAUGGAUCCACAUCUACGAAUUCGUACCAUAGAGAGUUUAUCCCCUCACCGAGAUCGGAAGAGCACACGU
B11: target 1 insU 3' of 14,insG 3' of 7 (mixed)
RNA 1: CACCCGUGCAAAAAUGCAGGGGUCUAAAACUGAGCGGAUAACCUCUCUAUGG
RNA 2: GGGAAUGGAUCCACAUCUACGAAUUCGUACCAUAGAGAUGGUUAUCGCGCUCACCGAGAUCGGAAGAGCACACGU
B12: target 1 insU 3' of 9,insC 3' of 8 (mixed)
RNA 1: CACCCGUGCAAAAAUGCAGGGGUCUAAAACUGAGCGGAUAACCUCUCUAUGG
RNA 2: GGGAAUGGAUCCACAUCUACGAAUUCGUACCAUAGAGAGGUUAUUCCCGCUCACCGAGAUCGGAAGAGCACACGU
B13: target 1 insU 3' of 12,insC 3' of 9 (mixed)
RNA 1: CACCCGUGCAAAAAUGCAGGGGUCUAAAACUGAGCGGAUAACCUCUCUAUGG
RNA 2: GGGAAUGGAUCCACAUCUACGAAUUCGUACCAUAGAGAGGUUUACUCCGCUCACCGAGAUCGGAAGAGCACACGU
B14: target 1 complement block 3-11 (mixed)
RNA 1: CACCCGUGCAAAAAUGCAGGGGUCUAAAACUGAGCGGAUAACCUCUCUAUGG
RNA 2: GGGAAUGGAUCCACAUCUACGAAUUCGUACCAUAGAGAGGAAUAGGCGACACCGAGAUCGGAAGAGCACACGU
B15: target 1 insA 3' of 2 (mixed)
RNA 1: CACCCGUGCAAAAAUGCAGGGGUCUAAAACUGAGCGGAUAACCUCUCUAUGG
RNA 2: GGGAAUGGAUCCACAUCUACGAAUUCGUACCAUAGAGAGGUUAUCCGCUCAACCGAGAUCGGAAGAGCACACGU
B16: target 1 C4A,U10G (mixed)
RNA 1: CACCCGUGCAAAAAUGCAGGGGUCUAAAACUGAGCGGAUAACCUCUCUAUGG
RNA 2: GGGAAUGGAUCCACAUCUACGAAUUCGUACCAUAGAGAGGUGAUCCGAUCACCGAGAUCGGAAGAGCACACGU
B17: target 1 insA 3' of 11,insU 3' of 7 (mixed)
RNA 1: CACCCGUGCAAAAAUGCAGGGGUCUAAAACUGAGCGGAUAACCUCUCUAUGG
RNA 2: GGGAAUGGAUCCACAUCUACGAAUUCGUACCAUAGAGAGGUAUAUCUCGCUCACCGAGAUCGGAAGAGCACACGU
B18: target 1 insC 3' of 15,insU 3' of 15 (mixed)
RNA 1: CACCCGUGCAAAAAUGCAGGGGUCUAAAACUGAGCGGAUAACCUCUCUAUGG
RNA 2: GGGAAUGGAUCCACAUCUACGAAUUCGUACCAUAGAGCUAGGUUAUCCGCUCACCGAGAUCGGAAGAGCACACGU
B19: target 1 G5A,U11C (mixed)
RNA 1: CACCCGUGCAAAAAUGCAGGGGUCUAAAACUGAGCGGAUAACCUCUCUAUGG
RNA 2: GGGAAUGGAUCCACAUCUACGAAUUCGUACCAUAGAGAGGCUAUCCACUCACCGAGAUCGGAAGAGCACACGU
B20: target 1 insC 3' of 13,insC 3' of 12 (mixed)
RNA 1: CACCCGUGCAAAAAUGCAGGGGUCUAAAACUGAGCGGAUAACCUCUCUAUGG
RNA 2: GGGAAUGGAUCCACAUCUACGAAUUCGUACCAUAGAGAGCGCUUAUCCGCUCACCGAGAUCGGAAGAGCACACGU
B21: target 1 insC 3' of 17,insG 3' of 16 (mixed)
RNA 1: CACCCGUGCAAAAAUGCAGGGGUCUAAAACUGAGCGGAUAACCUCUCUAUGG
RNA 2: GGGAAUGGAUCCACAUCUACGAAUUCGUACCAUAGCAGGAGGUUAUCCGCUCACCGAGAUCGGAAGAGCACACGU
B22: target 1 C2G,G13A (mixed)
RNA 1: CACCCGUGCAAAAAUGCAGGGGUCUAAAACUGAGCGGAUAACCUCUCUAUGG
RNA 2: GGGAAUGGAUCCACAUCUACGAAUUCGUACCAUAGAGAAGUUAUCCGCUGACCGAGAUCGGAAGAGCACACGU
B23: target 1 insC 3' of 8,insG 3' of 7 (mixed)
RNA 1: CACCCGUGCAAAAAUGCAGGGGUCUAAAACUGAGCGGAUAACCUCUCUAUGG
RNA 2: GGGAAUGGAUCCACAUCUACGAAUUCGUACCAUAGAGAGGUUAUCCGCGCUCACCGAGAUCGGAAGAGCACACGU
B24: target 1 insU 3' of 1 (mixed)
RNA 1: CACCCGUGCAAAAAUGCAGGGGUCUAAAACUGAGCGGAUAACCUCUCUAUGG
RNA 2: GGGAAUGGAUCCACAUCUACGAAUUCGUACCAUAGAGAGGUUAUCCGCUCAUCCGAGAUCGGAAGAGCACACGU
B25: target 1 insA 3' of 7,insA 3' of 4 (mixed)
RNA 1: CACCCGUGCAAAAAUGCAGGGGUCUAAAACUGAGCGGAUAACCUCUCUAUGG
RNA 2: GGGAAUGGAUCCACAUCUACGAAUUCGUACCAUAGAGAGGUUAUCACGCAUCACCGAGAUCGGAAGAGCACACGU
B26: target 1 C6U,A20C (mixed)
RNA 1: CACCCGUGCAAAAAUGCAGGGGUCUAAAACUGAGCGGAUAACCUCUCUAUGG
RNA 2: GGGAAUGGAUCCACAUCUACGAAUUCGUACCCUAGAGAGGUUAUCUGCUCACCGAGAUCGGAAGAGCACACGU
B27: target 1 G15A,A18C (mixed)
RNA 1: CACCCGUGCAAAAAUGCAGGGGUCUAAAACUGAGCGGAUAACCUCUCUAUGG
RNA 2: GGGAAUGGAUCCACAUCUACGAAUUCGUACCAUCGAAAGGUUAUCCGCUCACCGAGAUCGGAAGAGCACACGU
B28: target 1 insG 3' of 4,insU 3' of 4 (mixed)
RNA 1: CACCCGUGCAAAAAUGCAGGGGUCUAAAACUGAGCGGAUAACCUCUCUAUGG
RNA 2: GGGAAUGGAUCCACAUCUACGAAUUCGUACCAUAGAGAGGUUAUCCGCGUUCACCGAGAUCGGAAGAGCACACGU

Each binder was assayed against T1, EsCas13d, nuclease-dead (assay: crRNA (strand 1, pre-loaded); Mg2+; 40 mM Tris-HCl pH 7.5, 150 mM NaCl, 6 mM MgCl2, 1 mM DTT, 0.1% Tween-20, 0.2 mg/ml BSA; 25 C; 10 min per concentration, then washed). Details: tags: His6-TwinStrep-SUMO cleaved; N-terminal SNAP kept (SNAP-Surface 488); label: 3' end held by stalled T7 RNA polymerase.

Binder | Kd
B1 | 12.7 ± 0.6 nM
B2 | 70 ± 31 nM
B3 | 10.3 ± 1 nM
B4 | 78 ± 24 nM
B5 | 13 ± 1 nM
B6 | 31.3 ± 3.5 nM
B7 | 17.2 ± 0.7 nM
B8 | 25.1 ± 1.6 nM
B9 | 26.3 ± 3.2 nM
B10 | 8.7 ± 0.6 nM
B11 | 29.3 ± 1.7 nM
B12 | 42 ± 10 nM
B13 | 11.6 ± 0.6 nM
B14 | 13 ± 0.6 nM
B15 | 8.5 ± 0.5 nM
B16 | 10.1 ± 0.9 nM
B17 | 48 ± 5 nM
B18 | 23.3 ± 1.1 nM
B19 | 34 ± 4 nM
B20 | 17.7 ± 1.2 nM
B21 | 64 ± 6 nM
B22 | 5.4 ± 0.6 nM
B23 | 10.3 ± 0.9 nM
B24 | 9.6 ± 0.4 nM
B25 | 4.53 ± 0.23 nM
B26 | 100 ± 50 nM
B27 | 81 ± 15 nM
B28 | 7 ± 0.4 nM
